PMC11920956

What was measured:
[1] = biological target: Lys4 (position 4, --VERKEG---); assay: potentiometry; details: 298 K, 0.1 M NaClO4
Tyr16 (position 16, …-) = assay: potentiometry; details: 298 K; 0.1 M NaClO4; none (4 mM HClO4, 0.5 mM peptide); free peptide, no metal

Protein	pKa ([1]; none (4 mM HClO4, 0.5 mM peptide), free peptide, no metal)	pKa ([1]; none (4 mM HClO4, 0.5 mM peptide, Mohr's salt as Fe(II) source), Fe(II) present, Fe(II):L = 1:1.1, step [FeLH-3]2- to [FeLH-4]3- of the 1:1 Fe(II):L2 complex)	pKa (Tyr16 (position 16, …-))
VERKEG	9.92	9.87	–
IMRGEATPFVMELPVYHVPH [L1, peptide model of the Core CFeoB region of FeoB (residues 477-496) (Escherichia coli K12)]	–	–	9.67
